The source of these data is US9518268B2, “Drought tolerant transgenic plants and method of making same” (PURDUE RESEARCH FOUNDATION, priority 2013, dated 2016).

Like-named read-outs stand apart in the source and are kept apart here.

Series [1] deals with ABI1. Put plainly: Phosphatase activity assay (pNPP) with purified PP2Cs and PYLs. Type of series: biochemical, Arabidopsis thaliana. Conditions: in the presence of 10 μM ABA; ABI1 and PYLs 0.3 μM. The procedure:
The inhibition by PYL13 is ABA-independent, whereas the inhibition by PYR1 and PYL2 is ABA-induced (FIG. 4B). […] The phosphatase activities of PP2CA, ABI1, and ABI2 were measured in the absence or presence of ABA (1.25 μM), and with or without PYLs. The concentration of PP2Cs and PYLs was 0.3 μM. The A405 value of reaction without PP2C was set as 0% and that of the reaction with PP2C but without ABA and PYLs was set as 100%. Error bars indicate s.e.m. (n=6 for PP2CA and ABI2, and n=3 for ABI1).
To test the functional significance of potential heterodimer formation between PYL13 and other PYLs, the abilities of PYL1 and PYL2 and the protein complexes PYL13-PYL1 and PYL13-PYL2 to inhibit the phosphatase activity of ABI1 were compared using purified recombinant proteins and the synthetic phosphatase substrate pNPP. […] The phosphatase activity of ABI1 was measured (using pNPP) in the absence or presence of 10 μM ABA, with or without PYLs, and with PYL13-PYL dimers. The concentration of ABI1 and PYLs was 0.3 μM. The A405 value of reaction without ABI1 was set as 0% and that of the reaction with ABI1 but without ABA and PYLs was set as 100%. Error bars indicate s.e.m. (n=6). In the presence of 10 μM ABA, ABI1 phosphatase activity was reduced to 67±6% by PYL1 but only to 88±8% by PYL13-PYL1. In the presence of 10 μM ABA, ABI1 phosphatase activity was reduced to 50±3% by PYL2 but only to 78±10% by PYL13-PYL2.
Phosphatase activity was measured using the colorimetric substrate p-nitrophenyl phosphate (pNPP, SIGMA). Reactions were performed in a reaction buffer containing 50 mM Tris-HCl, pH 7.5, 25 mM Mg(OAc)2, 2 mM MnCl2, 0.5 mM EGTA, 0.5% β-mercaptoethanol, and 0.5% BSA. ABA and PYLs were added as indicated. The concentration of PP2Cs and PYLs was 0.3 μM. Reactions were initiated by the addition of pNPP to a final concentration of 50 mM. The hydrolysis of pNPP was measured by following the absorbance at 405 nm (A405). Because His-PYL13 is difficult to purify, is prone to degradation, and rapidly loses activity, newly purified PYL13 was used for the phosphatase activity assay.

Series [2] addresses T1, ABI1 (Arabidopsis thaliana, UniProt P49597+Q8H1R0).
T1 sequence (P49597 1-434): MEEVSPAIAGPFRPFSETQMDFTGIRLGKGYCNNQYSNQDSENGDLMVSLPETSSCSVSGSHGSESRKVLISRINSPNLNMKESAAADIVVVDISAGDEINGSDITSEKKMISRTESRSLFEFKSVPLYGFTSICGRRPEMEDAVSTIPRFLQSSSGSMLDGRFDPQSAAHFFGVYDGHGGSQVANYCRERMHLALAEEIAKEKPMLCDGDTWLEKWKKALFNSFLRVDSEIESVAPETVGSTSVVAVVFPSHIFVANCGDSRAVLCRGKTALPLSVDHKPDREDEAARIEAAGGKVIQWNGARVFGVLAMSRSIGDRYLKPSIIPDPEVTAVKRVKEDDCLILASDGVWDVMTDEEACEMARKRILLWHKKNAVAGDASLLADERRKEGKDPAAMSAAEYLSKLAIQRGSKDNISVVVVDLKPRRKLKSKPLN
T1 sequence (Q8H1R0 1-183): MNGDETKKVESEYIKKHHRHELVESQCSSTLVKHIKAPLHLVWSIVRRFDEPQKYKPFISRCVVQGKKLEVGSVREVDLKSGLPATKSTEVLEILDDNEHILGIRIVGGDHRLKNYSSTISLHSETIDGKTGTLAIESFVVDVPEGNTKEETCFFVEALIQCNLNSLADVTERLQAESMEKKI
Conditions: read-out: dissociation constant (Kd) of PYL10-ABI1 interaction, cited from earlier work.

Consider “PYL1: Arabidopsis thaliana PYL family ABA receptor protein PYL1, AT5G46790”, for which the “ABI1 phosphatase activity reduced to” value in the series on ABI1 [1] came to 67±6%.

Consider “PYL13-PYL1: protein complex (heterodimer) of purified recombinant PYL13 and PYL1”, for which, in the series with ABI1 [1], the “ABI1 phosphatase activity reduced to” value was 88±8%.

Regarding “PYL13-PYL2: protein complex (heterodimer) of purified recombinant PYL13 and PYL2”, in the series with ABI1 [1], the “ABI1 phosphatase activity reduced to” value came to 78±10%.

B1: PYL10: Arabidopsis thaliana PYL family protein PYL10, AT4G27920 (protein, listed as Arabidopsis thaliana)
chain: T1 sequence (Q8H1R0 1-183)
Consider B1, for which the Kd with ABI1 [2] (with ABA) was 0.02 µM; with ABI1 [2] (without ABA), 1.2 µM.

As a reminder, the Kd is a measure of binding affinity in units of concentration.
